{"source": "patent US20230346773A1", "about": "“USE OF PCSK9 INHIBITOR IN PREPARATION OF PRODUCT FOR TREATING MULTIPLE DISEASES” (priority 2020, published 2023)", "molecules": {"B1": {"name": "Evolocumab (antibody, chains of the INN, looked up, V domains shown)", "VH": "EVQLVQSGAEVKKPGASVKVSCKASGYTLTSYGISWVRQAPGQGLEWMGWVSFYNGNTNYAQKLQGRGTMTTDPSTSTAYMELRSLRSDDTAVYYCARGYGMDVWGQGTTVTVSS", "VL": "ESALTQPASVSGSPGQSITISCTGTSSDVGGYNSVSWYQQHPGKAPKLMIYEVSNRPSGVSNRFSGSKSGNTASLTISGLQAEDEADYYCNSYTSTSMVFGGGTKLTVL", "notes": "PCSK9 monoclonal antibody jointly developed by Amgen and Astellas, trade name Repatha"}}, "key": {"[1]": {"tested_on": "hair follicles / hair growth in depilated C57BL/6 mice", "test": "Hair growth in C57BL/6 mice after rosin/paraffin depilation", "type": "in vivo", "description": "SPF grade C57BL/6 mice were selected and numbered according to their weight. They were randomly divided into compound group 1 (skin applied with 2% R-IMPP solution), compound group 2 (skin applied with 2% PF 06446846 solution), and compound group 3 (skin applied with 2% SBC-115076 solution), compound group 4 (skin applied with 2% SBC-110736 solution), monoclonal antibody group 1 (PCSK9subcutaneous injection monoclonal antibody ab81041, 5 mg/kg·d), monoclonal antibody group 2 (Subcutaneous injection of Evolocumab, 5 mg/kg·d), monoclonal antibody group 3 (subcutaneous injection of Alirocumab, 5 mg/kg·d), PCSK9 RNA interference group-1 (skin applied with 2% PCSK9 small interfering RNA-1 solution), PCSK9 RNA interference Group-2 (skin applied with 2% PCSK9 small interfering RNA-2 solution), PCSK9 RNA interference group-3 (skin applied with 2% PCSK9 small interfering RNA-3 solution), polypeptide group (subcutaneous injection of Abcam company ab32727, 3 mg/kg·d), positive control group (skin applied with 2% minoxidil solution), negative control group (skin applied with 60% ethanol), and model control group (skin applied with 60% ethanol), 10 mice in each group, half male and half female. After the mice were anesthetized with ether, they were coated on the back with a mixture of rosin and paraffin (1:1) after hot melting, and then peeled off after it solidified and hardened. The back of the mouse was cleaned to be hairless and without injuries. The depilation area was about 3 cm×4 cm. From the 2nd day after depilation, the corresponding drugs were applied to the hair removal area, twice a day, 0.5 mL per animal each time, and subcutaneously injected once a week.\nFrom the second day after application, observe the daily color change of the skin on the back of the mice to determine the growth state of the hair follicles and visually observe the hair growth in the depilation area, and score the new hair growth in the depilation area once a day. Five mice in each group were reserved for 40 days of visual observation, and the growth of back hair was recorded.\nOn the 17th day, five mice in each group were sacrificed by cervical dislocation. The samples were taken from the same part of the back parallel to the spine, fixed with 10% formaldehyde, dehydrated, embedded in paraffin, sectioned, stained with HE, and sealed with neutral gum. Then the histology of hair follicles was observed under light microscope, and morphological staging of hair follicles was performed. According to the international hair cycle scoring method, the hair follicles were scored as follows: 100 points for growth stage VI, 200 points for early regression, 300 points for middle regression, and 400 points for late regression. 50 hair follicles were randomly selected from each mouse, the cycle of the hair follicles in each group was determined, and the average hair cycle score and the percentage of hair follicles in the growth phase VI, early regression, middle regression, and late regression were calculated."}, "[2]": {"tested_on": "androgenetic alopecia (SA) rat model", "test": "Androgenetic alopecia (SA) rat model induced by testosterone propionate", "type": "in vivo, Wistar rats", "description": "SPF grade Wistar rats were selected and randomly divided into compound group 1 (skin applied with 5% R-IMPP solution), compound group 2 (skin applied with 5% PF 06446846 solution), and compound group 3 (skin applied with 5% SBC-115076 solution), compound group 4 (skin applied with 5% SBC-110736 solution), monoclonal antibody group 1 (subcutaneous injection of PCSK9 monoclonal antibody ab84041, 5 mg/kg·d), monoclonal antibody group 2 (subcutaneous injection of Evolocumab, 5 mg/kg·d), monoclonal antibody group 3 (subcutaneous injection of Alirocumab, 5 mg/kg·d), PCSK9 RNAi inhibitor group-1 (skin applied with 5% PCSK9 small interfering RNA-1 solution), PCSK9 RNAi inhibitor group-2 (skin applied with 5% PCSK9 small interfering RNA-2 solution), PCSK9 RNAi inhibitor group-3 (skin applied with 5% PCSK9 small interfering RNA-3 solution), and polypeptide group (subcutaneous injection of Abcam company ab32727, 3 mg/kg·d), positive control group (skin smeared with 5% minoxidil tincture), negative control group (smeared with 75% ethanol), model control group (smeared with 75% ethanol), 10 rats in each group, half male and half female.\nBefore the experiment, each rat selected an area of 4 cm×5 cm on the back to remove the hair as the observation area. Except for the negative control group, the rats were subcutaneously injected with testosterone propionate injection [[…]] at the back of the neck, once a day for 60 consecutive days to establish the SA model. […] At the same time, the rats in the corresponding drug group were smeared or subcutaneously injected on the skin of the observation area of the rats in the drug group, smeared 1 ml/(per time), twice a day, with an interval of 8 hours, and administered by subcutaneous injection, once a day. The negative control group and the model control group were smeared with excipient (75% ethanol solution), 1 mL one rat per time, twice a day, for 60 consecutive days.\n10 hairs were extracted from the observation area on the back of each rat every 15 days after administration, and the hair length was measured with a vernier caliper. After 60 days of administration, the skin of the experimental observation area was taken for routine tissue dehydration, paraffin embedding, HE staining, and light microscopy to observe the histopathological changes of the rat skin hair follicles and sebaceous glands. Semi-quantitative analysis was carried out in each group. The grading standards are as follows: normal skin dermal tissue cells, subcutaneous hair follicles, and sebaceous glands were marked as “one”; no hyperplasia in the dermis, limited lesions of hair follicles and sebaceous glands, and no subcutaneous inflammation, marked as “±”; no obvious hyperplasia found in the dermis, obviously cystic follicles, no obvious hyperplasia found in the sebaceous glands, and no inflammation is recorded as “+”; segmental hyperplasia of skin and dermis was not obvious, a small number of hair follicles had cystic degeneration, and sebaceous glands had mild hyperplasia and hypertrophy. No obvious inflammation under the skin was recorded as “++”; the skin and dermis tissue cells had segmental hyperplasia of different degrees, some follicles degenerated, the size of the hair follicles was uneven, and there were no cells in the periphery. There was hyperplasia of sebaceous glands, and there were few nuclei in the hyperplasia glands. Individual rats had mild inflammatory hyperplasia under the skin, which was marked as “+++”."}, "[3]": {"conditions": "hair removal area on the back of mice, after hair removal"}}, "note": "Marks after values point to notes of the source that are not given here.", "data": [{"molecule": "B1", "values": [{"measurement": "Time from hair growth to the same length as the hair in the non-experimental area", "setting": "[1]; back hair removal area of mice", "result": "9.89* days"}, {"measurement": "Time to grow new hair", "setting": "[1]; back hair removal area of mice", "result": "5.78* days"}, {"measurement": "Time to match the length of hair in the non-experimental area", "setting": "[1]; back hair removal area of mice", "result": "16.68* days"}, {"measurement": "Black skin duration", "setting": "[1]; hair removal area on the back of mice", "result": "10.21* days"}, {"measurement": "Skin black-turning time", "setting": "[1]; [3]", "result": "5.23* days"}, {"measurement": "Skin grayish-black-turning time", "setting": "[1]; [3]", "result": "16.83* days"}, {"measurement": "Skin hair follicles and sebaceous glands: number of rats graded ++", "setting": "[2]; 10 rats, after 60 days, few follicles with cystic degeneration, sebaceous glands mild hyperplasia and hypertrophy", "result": 0}, {"measurement": "Skin hair follicles and sebaceous glands: number of rats graded ±", "setting": "[2]; 10 rats, after 60 days, no hyperplasia in the dermis, limited lesions of hair follicles and sebaceous glands, no subcutaneous inflammation", "result": 4}, {"measurement": "Skin hair follicles and sebaceous glands: number of rats graded +", "setting": "[2]; 10 rats, after 60 days, no obvious hyperplasia in dermis, obviously cystic follicles, no inflammation", "result": 3}, {"measurement": "Skin hair follicles and sebaceous glands: number of rats graded −", "setting": "[2]; 10 rats, after 60 days, normal skin dermal tissue cells, subcutaneous hair follicles and sebaceous glands", "result": 3}, {"measurement": "Skin hair follicles and sebaceous glands: number of rats graded +++", "setting": "[2]; 10 rats, after 60 days, segmental hyperplasia, degenerated follicles, hyperplasia of sebaceous glands, mild inflammatory hyperplasia", "result": 0}, {"measurement": "15 d hair length", "setting": "[2]; rats, 15 days after administration", "result": "9.7* mm"}, {"measurement": "30 d hair length", "setting": "[2]; rats, 30 days after administration", "result": "10.8* mm"}, {"measurement": "45 d hair length", "setting": "[2]; rats, 45 days after administration", "result": "15.8* mm"}, {"measurement": "60 d hair length", "setting": "[2]; rats, 60 days after administration", "result": "19.5* mm"}]}]}
